The values that follow are results of earlier work, collected in paper PMC10581250.

Series [1] concerns the target OdhA (E1oE2o subunit) (Corynebacterium glutamicum) (UniProt Q8NRC3).
Series [2] deals with OdhA (Corynebacterium glutamicum) (UniProt Q8NRC3). Kind of series: surface plasmon resonance.
Series [3] concerns the target KGD (Mycobacterium smegmatis) (UniProt A1KI36).
Chain of UniProt A1KI36 (A1KI36 whole entry): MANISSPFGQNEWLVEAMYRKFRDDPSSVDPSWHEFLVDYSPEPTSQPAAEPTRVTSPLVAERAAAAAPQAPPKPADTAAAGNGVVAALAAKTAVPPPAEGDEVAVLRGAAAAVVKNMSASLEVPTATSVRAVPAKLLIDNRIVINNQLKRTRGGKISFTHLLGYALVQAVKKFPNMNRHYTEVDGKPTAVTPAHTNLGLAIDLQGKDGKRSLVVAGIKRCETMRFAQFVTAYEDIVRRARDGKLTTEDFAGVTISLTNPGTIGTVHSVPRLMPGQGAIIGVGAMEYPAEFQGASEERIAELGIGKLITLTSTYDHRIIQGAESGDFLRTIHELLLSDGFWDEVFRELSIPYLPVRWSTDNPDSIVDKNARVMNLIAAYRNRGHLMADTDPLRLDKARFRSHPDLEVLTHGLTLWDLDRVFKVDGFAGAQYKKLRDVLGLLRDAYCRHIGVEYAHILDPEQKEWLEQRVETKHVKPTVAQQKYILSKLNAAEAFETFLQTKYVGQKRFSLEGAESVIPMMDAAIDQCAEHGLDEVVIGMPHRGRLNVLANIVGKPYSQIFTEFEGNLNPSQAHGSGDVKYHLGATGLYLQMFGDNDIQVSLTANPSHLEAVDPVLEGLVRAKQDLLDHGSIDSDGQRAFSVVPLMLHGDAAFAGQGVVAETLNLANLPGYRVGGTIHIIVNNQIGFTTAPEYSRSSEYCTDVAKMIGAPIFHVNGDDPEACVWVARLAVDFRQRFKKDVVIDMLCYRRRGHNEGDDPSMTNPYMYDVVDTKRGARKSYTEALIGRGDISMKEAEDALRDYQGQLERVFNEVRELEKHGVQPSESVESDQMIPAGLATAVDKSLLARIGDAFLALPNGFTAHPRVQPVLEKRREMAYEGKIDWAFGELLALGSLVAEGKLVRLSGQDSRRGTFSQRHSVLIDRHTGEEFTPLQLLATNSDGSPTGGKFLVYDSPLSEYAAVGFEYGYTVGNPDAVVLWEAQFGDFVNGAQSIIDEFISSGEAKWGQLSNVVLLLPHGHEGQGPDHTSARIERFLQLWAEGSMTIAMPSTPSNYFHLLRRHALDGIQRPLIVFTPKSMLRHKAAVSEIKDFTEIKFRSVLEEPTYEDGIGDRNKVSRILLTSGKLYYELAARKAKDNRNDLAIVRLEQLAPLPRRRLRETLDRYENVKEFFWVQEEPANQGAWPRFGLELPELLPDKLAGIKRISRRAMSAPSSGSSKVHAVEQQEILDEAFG

In general, Ki refers to a measure of affinity in units of concentration, obtained from inhibition or displacement. By Kd is commonly meant the concentration at which binding is half-saturated. For OdhI (from UniProt Q8NQJ3), in series [1], the Ki was 2.4 nM. The Kd in series [2] is 13.8 nM.

On to GarA (from UniProt P9WJA9), for which the Kd in series [3] was 1920 nM.
